What all share (assay): A340 NADH formation, steady state, Michaelis-Menten fit
Substrate in data set [1]: CC(C)[C@H](C(=O)O)[C@@H](O)C(=O)O
It counts as biochemical, Thermus thermophilus. As to conditions: 40 °C, 50 mM HEPES pH 8.0, 100 mM KCl, 5 mM MgCl2, 5 mM NAD+ fixed, 40.0 °C. An excerpt:
(§1) A340 NADH formation, steady state, Michaelis-Menten fit on T. thermophilus IPMDH

Substrate in data set [2]: NC(=O)c1ccc[n+]([C@@H]2O[C@H](COP(=O)(O)OP(=O)(O)OC[C@H]3O[C@@H](n4cnc5c(N)ncnc54)[C@H](O)[C@@H]3O)[C@@H](O)[C@H]2O)c1
It counts as biochemical, Thermus thermophilus. The note with it: 25 °C, 50 mM HEPES pH 8.0, 100 mM KCl, 5 mM MgCl2, 0.2 mM D-3-IPM fixed, 25.0 °C, varied: cofactor.
Text: as §1

Substrate in data set [3]: CC(C)[C@H](C(=O)O)[C@@H](O)C(=O)O
The format is biochemical, Saccharomyces cerevisiae. As to conditions: 40 °C, 50 mM HEPES pH 8.0, 100 mM KCl, 5 mM MgCl2, 5 mM NAD+ fixed, 40.0 °C. An excerpt:
(§2) A340 NADH formation, steady state, Michaelis-Menten fit on S. cerevisiae IPMDH

Substrate in data set [4]: NC(=O)c1ccc[n+]([C@@H]2O[C@H](COP(=O)(O)OP(=O)(O)OC[C@H]3O[C@@H](n4cnc5c(N)ncnc54)[C@H](O)[C@@H]3O)[C@@H](O)[C@H]2O)c1
It counts as biochemical, Saccharomyces cerevisiae. The note with it: 25 °C, 50 mM HEPES pH 8.0, 100 mM KCl, 5 mM MgCl2, 0.2 mM D-3-IPM fixed, 25.0 °C, varied: cofactor.
Text: as §2

Substrate in data set [5]: CC(C)[C@H](C(=O)O)[C@@H](O)C(=O)O
It counts as biochemical, Bacillus subtilis. As to conditions: 40 °C, 50 mM HEPES pH 8.0, 100 mM KCl, 5 mM MgCl2, 5 mM NAD+ fixed, 40.0 °C. An excerpt: (§3) A340 NADH formation, steady state, Michaelis-Menten fit on B. subtilis IPMDH

Substrate in data set [6]: NC(=O)c1ccc[n+]([C@@H]2O[C@H](COP(=O)(O)OP(=O)(O)OC[C@H]3O[C@@H](n4cnc5c(N)ncnc54)[C@H](O)[C@@H]3O)[C@@H](O)[C@H]2O)c1
It counts as biochemical, Bacillus subtilis. The note with it: 25 °C, 50 mM HEPES pH 8.0, 100 mM KCl, 5 mM MgCl2, 0.2 mM D-3-IPM fixed, 25.0 °C, varied: cofactor.
Text: as §3

B1: T. thermophilus IPMDH (Thermus thermophilus HB8) (protein)
chain: MKVAVLPGDGIGPEVTEAALKVLRALDEAEGLGLAYEVFPFGGAAIDAFGEPFPEPTRKGVEEAEAVLLGSVGGPKWDGLPRKIRPETGLLSLRKSQDLFANLRPAKVFPGLERLSPLKEEIARGVDVLIVRELTGGIYFGEPRGMSEAEAWNTERYSKPEVERVARVAFEAARKRRKHVVSVDKANVLEVGEFWRKTVEEVGRGYPDVALEHQYVDAMAMHLVRSPARFDVVVTGNIFGDILSDLASVLPGSLGLLPSASLGRGTPVFEPVHGSAPDIAGKGIANPTAAILSAAMMLEHAFGLVELARKVEDAVAKALLETPPPDLGGSAGTEAFTATVLRHLA
notes: extant thermophilic wild type; homodimer
Take B1: in data set [1], the Km is 2.3 ± 0.8 µM and the kcat was determined as 2.4 ± 0.1 s⁻¹. Further, in data set [2], the Michaelis-Menten constant (Km) turned out to be 2.2 ± 0.3 µM and the kcat amounted to 0.37 ± 0.01 s⁻¹.

B2: S. cerevisiae IPMDH (Saccharomyces cerevisiae S288C) (protein)
chain: MSAPKKIVVLPGDHVGQEITAEAIKVLKAISDVRSNVKFDFENHLIGGAAIDATGVPLPDEALEASKKADAVLLGAVGGPKWGTGSVRPEQGLLKIRKELQLYANLRPCNFASDSLLDLSPIKPQFAKGTDFVVVRELVGGIYFGKRKEDDGDGVAWDSEQYTVPEVQRITRMAAFMALQHEPPLPIWSLDKANVLASSRLWRKTVEETIKNEFPTLKVQHQLIDSAAMILVKNPTHLNGIIITSNMFGDIISDEASVIPGSLGLLPSASLASLPDKNTAFGLYEPCHGSAPDLPKNKVNPIATILSAAMMLKLSLNLPEEGKAIEDAVKKVLDAGIRTGDLGGSNSTTEVGDAVAEEVKKILA
notes: recombinant from E. coli Rosetta2 (DE3), pET21c(+) NdeI-BamHI, purified by HiTrap-Q, HiTrap-Butyl and ResourceQ; no tag mentioned
Take B2: in data set [3], the Km amounted to 4.5 ± 0.7 µM and the kcat stood at 20 ± 1 s⁻¹. In addition, in data set [4], the Michaelis-Menten constant (Km) is 130 ± 10 µM and the kcat came to 5.1 ± 0.1 s⁻¹.

B3: B. subtilis IPMDH (Bacillus subtilis subsp. subtilis str. 168) (protein)
chain: MKKRIALLPGDGIGPEVLESATDVLKSVAERFNHEFEFEYGLIGGAAIDEHHNPLPEETVAACKNADAILLGAVGGPKWDQNPSELRPEKGLLSIRKQLDLFANLRPVKVFESLSDASPLKKEYIDNVDFVIVRELTGGLYFGQPSKRYVNTEGEQEAVDTLFYKRTEIERVIREGFKMAAARKGKVTSVDKANVLESSRLWREVAEDVAQEFPDVKLEHMLVDNAAMQLIYAPNQFDVVVTENMFGDILSDEASMLTGSLGMLPSASLSSSGLHLFEPVHGSAPDIAGKGMANPFAAILSAAMLLRTSFGLEEEAKAVEDAVNKVLASGKRTRDLARSEEFSSTQAITEEVKAAIMSENTISNV
notes: as for B2
Regarding B3, in data set [5], the Km worked out at 0.78 ± 0.11 µM and the kcat turned out to be 9.4 ± 0.2 s⁻¹. Besides, in data set [6], the Km is 110 ± 10 µM and the kcat stood at 2.8 ± 0.1 s⁻¹.

In general, Km refers to the concentration of substrate that gives half-maximal velocity. Usually kcat stands for the number of substrate molecules converted per active site and unit of time at saturation.

Values taken from article PMC7511310, “Ancestral sequence reconstruction produces thermally stable enzymes with mesophilic enzyme-like catalytic properties” (Scientific Reports, 2020).
